# Measurements published in patent publication US20050064507.
# T1: ADD2 peptide KKKFRTPSFLKKSKK (SEQ ID NO:95) (not fully specified)
# T1 chain: KKKFRTPSFLKKSKK
# T2: ARHGAP6 peptide DGQKRKKSLRKKLD (SEQ ID NO:92) (not fully specified)
# T2 chain: DGQKRKKSLRKKLD
# T3: EBNA1BP2 peptide KRPGKKGSNKRPGKR (SEQ ID NO:112) (not fully specified)
# T3 chain: KRPGKKGSNKRPGKR
# T4: GABA A receptor beta 2 peptide ERHVAQKKSRLRRRASQLKI (SEQ ID NO:142) (not fully specified)
# T4 chain: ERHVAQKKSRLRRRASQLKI
# T5: KCNH2 peptide RQRKRKLSFRRRTDKD (SEQ ID NO:86) (not fully specified)
# T5 chain: RQRKRKLSFRRRTDKD
# T6: LIMK-2 peptide LRRRSLRRSNSISKSPGP (SEQ ID NO:121) (not fully specified)
# T6 chain: LRRRSLRRSNSISKSPGP
# T7: M1 muscarinic receptor peptide RWDKRRWRKIPKRPGSVHRT (SEQ ID NO:155) (not fully specified)
# T7 chain: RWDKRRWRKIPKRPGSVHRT
# T8: … peptide KKPFKLSGLSFKRNRKE (SEQ ID NO:88) (not fully specified)
# T8 chain: KKPFKLSGLSFKRNRKE
# T9: MYBPC3 peptide LLKKRDSFRTPRDSKLE (SEQ ID NO:103) (not fully specified)
# T9 chain: LLKKRDSFRTPRDSKLE
# T10: Myt1 kinase peptide PPRTPGWHQLQPRRVSFRGE (SEQ ID NO:163) (not fully specified)
# T10 chain: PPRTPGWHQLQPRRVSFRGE
# T11: NF1 peptide AGSFKRNSIKKIV (SEQ ID NO:102) (not fully specified)
# T11 chain: AGSFKRNSIKKIV
# T12: PARIS1 peptide EYLERRASRRRAV (SEQ ID NO:130) (not fully specified)
# T12 chain: EYLERRASRRRAV
# T13: PKD1 peptide RVVQSVKHTKRKSSTVMK (SEQ ID NO:149) (not fully specified)
# T13 chain: RVVQSVKHTKRKSSTVMK
# T14: PPP1R14A peptide QKRHARVTVKYDRRE (SEQ ID NO:107) (not fully specified)
# T14 chain: QKRHARVTVKYDRRE
# T15: PRKCM peptide VHYTSKDTLRKRHYWR (SEQ ID NO:91) (not fully specified)
# T15 chain: VHYTSKDTLRKRHYWR
# T16: PSCDBP peptide LSSMFGTLPRKSRKGSVRKQ (SEQ ID NO:144) (not fully specified)
# T16 chain: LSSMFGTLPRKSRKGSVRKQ
# T17: SDPR peptide EKIKRSSLKKVDSLKK (SEQ ID NO:104) (not fully specified)
# T17 chain: EKIKRSSLKKVDSLKK
# T18: SMARCA5 peptide MAQIERGEARIQRRISIKKA (SEQ ID NO:166) (not fully specified)
# T18 chain: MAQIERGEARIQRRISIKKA
# T19: beta adducin peptide KKKFRTPSFLKKSKK (SEQ ID NO:135) (not fully specified)
# T19 chain: KKKFRTPSFLKKSKK
# T20: beta adducin peptide PSKSPSKKKKKFRTPSFLKK (SEQ ID NO:137) (not fully specified)
# T20 chain: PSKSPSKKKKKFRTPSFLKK
# T21: cytohesin-2 peptide VDPFYEMLAARKKRISVKKK (SEQ ID NO:150) (not fully specified)
# T21 chain: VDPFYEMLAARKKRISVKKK
# T22: dag kinase iota peptide PQNSLKASNRKKKRTSFKRK (SEQ ID NO:151) (not fully specified)
# T22 chain: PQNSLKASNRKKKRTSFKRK
# T23: dag kinase zeta peptide KKKKRASFKRKSSKKG (SEQ ID NO:114) (not fully specified)
# T23 chain: KKKKRASFKRKSSKKG
# T24: dag kinase zeta peptide RPQNTLKASKKKKRASFKRK (SEQ ID NO:118) (not fully specified)
# T24 chain: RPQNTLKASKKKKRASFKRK
# T25: kinesin 3C peptide LEKRGMLGKRPRRKSSRRKK (SEQ ID NO:133) (not fully specified)
# T25 chain: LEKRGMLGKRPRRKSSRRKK
# T26: p164-RhoGEF peptide PRLIRRGSKKRPAR (SEQ ID NO:82) (not fully specified)
# T26 chain: PRLIRRGSKKRPAR
# T27: pkc-zeta peptide GLPAPGEDKSIYRRGSRRWR (SEQ ID NO:167) (not fully specified)
# T27 chain: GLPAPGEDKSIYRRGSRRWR
# T28: slp4 peptide TYLLPDKSRQGKRKTSIKRD (SEQ ID NO:153) (not fully specified)
# T28 chain: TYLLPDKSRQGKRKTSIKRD
# T29: splicing factor, arginine/serine-rich 4 peptide RSRSRSRSKSKDKRKSRKRS (SEQ ID NO:134) (not fully specified)
# T29 chain: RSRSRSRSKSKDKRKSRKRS
# T30: titin peptide PFEVVWYKDKRQLRSSKKYK (SEQ ID NO:160) (not fully specified)
# T30 chain: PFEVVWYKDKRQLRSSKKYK
# T31: ubiquitin specific protease 8 peptide RARRDSLKKIEIW (SEQ ID NO:136) (not fully specified)
# T31 chain: RARRDSLKKIEIW
# B1: PKC-theta (protein)
# chain: MSPFLRIGLSNFDCGSCQSCQGEAVNPYCAVLVKEYVESENGQMYIQKKPTMYPPWDSTFDAHINKGRVMQIIVKGKNVDLISETTVELYSLAERCRKNNGKTEIWLELKPQGRMLMNARYFLEMSDTKDMNEFETEGFFALHQRRGAIKQAKVHHVKCHEFTATFFPQPTFCSVCHEFVWGLNKQGYQCRQCNAAIHKKCIDKVIAKCTGSAINSRETMFHKERFKIDMPHRFKVYNYKSPTFCEHCGTLLWGLARQGLKCDACGMNVHHRCQTKVANLCGINQKLMAEALAMIESTQQARCLRDTEQIFREGPVEIGLPCSIKNEARPPCLPTPGKREPQGISWESPLDEVDKMCHLPEPELNKERPSLQIKLKIEDFILHKMLGKGSFGKVFLAEFKKTNQFFAIKALKKDVVLMDDDVECTMVEKRVLSLAWEHPFLTHMFCTFQTKENLFFVMEYLNGGDLMYHIQSCHKFDLSRATFYAAEIILGLQFLHSKGIVYRDLKLDNILLDKDGHIKIADFGMCKENMLGDAKTNTFCGTPDYIAPEILLGQKYNHSVDWWSFGVLLYEMLIGQSPFHGQDEEELFHSIRMDNPFYPRWLEKEAKDLLVKLFVREPEKRLGVRGDIRQHPLFREINWEELERKEIDPPFRPKVKSPFDCSNFDKEFLNEKPRLSFADRALINSMDQNMFRNFSFMNPGMERLIS
# How the values were obtained:
# [1] = target: T1, ADD2 peptide KKKFRTPSFLKKSKK (SEQ ID …)
# [2] = target: T2, ARHGAP6 peptide DGQKRKKSLRKKLD (SEQ ID …)
# [3] = target: T3, EBNA1BP2 peptide KRPGKKGSNKRPGKR (SEQ …)
# [4] = target: T4, GABA A receptor beta 2 peptide …
# [5] = target: T5, KCNH2 peptide RQRKRKLSFRRRTDKD (SEQ ID …)
# [6] = target: T6, LIMK-2 peptide LRRRSLRRSNSISKSPGP (SEQ …)
# [7] = target: T7, M1 muscarinic receptor peptide …
# [8] = target: T8, … peptide KKPFKLSGLSFKRNRKE (SEQ ID …)
# [9] = target: T9, MYBPC3 peptide LLKKRDSFRTPRDSKLE (SEQ …)
# [10] = target: T10, Myt1 kinase peptide …
# [11] = target: T11, NF1 peptide AGSFKRNSIKKIV (SEQ ID …)
# [12] = target: T12, PARIS1 peptide EYLERRASRRRAV (SEQ ID …)
# [13] = target: T13, PKD1 peptide RVVQSVKHTKRKSSTVMK (SEQ ID …)
# [14] = target: T14, PPP1R14A peptide QKRHARVTVKYDRRE (SEQ …)
# [15] = target: T15, PRKCM peptide VHYTSKDTLRKRHYWR (SEQ ID …)
# [16] = target: T16, PSCDBP peptide LSSMFGTLPRKSRKGSVRKQ …
# [17] = target: T17, SDPR peptide EKIKRSSLKKVDSLKK (SEQ ID …)
# [18] = target: T18, SMARCA5 peptide MAQIERGEARIQRRISIKKA …
# [19] = target: T19, beta adducin peptide KKKFRTPSFLKKSKK …
# [20] = target: T20, beta adducin peptide …
# [21] = target: T21, cytohesin-2 peptide …
# [22] = target: T22, dag kinase iota peptide …
# [23] = target: T23, dag kinase zeta peptide …
# [24] = target: T24, dag kinase zeta peptide …
# [25] = target: T25, kinesin 3C peptide LEKRGMLGKRPRRKSSRRKK …
# [26] = target: T26, p164-RhoGEF peptide PRLIRRGSKKRPAR (SEQ …)
# [27] = target: T27, pkc-zeta peptide GLPAPGEDKSIYRRGSRRWR …
# [28] = target: T28, slp4 peptide TYLLPDKSRQGKRKTSIKRD (SEQ …)
# [29] = target: T29, splicing factor, arginine/serine-rich 4 …
# [30] = target: T30, titin peptide PFEVVWYKDKRQLRSSKKYK (SEQ …)
# [31] = target: T31, ubiquitin specific protease 8 peptide …
protein,measurement,setting,value
B1,in vitro phosphorylation (% of best substrate),[1],42
same,in vitro phosphorylation (% of best substrate),[2],47
same,in vitro phosphorylation (% of best substrate),[3],17
same,"in vitro phosphorylation, 1 uM peptide (% of best substrate)",[4],28
same,"in vitro phosphorylation, 10 uM peptide (% of best substrate)",[4],37
same,in vitro phosphorylation (% of best substrate),[5],38
same,Peptide phosphorylation by PKC-theta,[6],57
same,"in vitro phosphorylation, 1 uM peptide (% of best substrate)",[6],51
same,"in vitro phosphorylation, 10 uM peptide (% of best substrate)",[6],57
same,"in vitro phosphorylation, 1 uM peptide (% of best substrate)",[7],23
same,"in vitro phosphorylation, 10 uM peptide (% of best substrate)",[7],26
same,in vitro phosphorylation (% of best substrate),[8],38
same,in vitro phosphorylation (% of best substrate),[9],24
same,"in vitro phosphorylation, 1 uM peptide (% of best substrate)",[10],14
same,"in vitro phosphorylation, 10 uM peptide (% of best substrate)",[10],11
same,in vitro phosphorylation (% of best substrate),[11],28
same,"in vitro phosphorylation, 1 uM peptide (% of best substrate)",[12],38
same,"in vitro phosphorylation, 10 uM peptide (% of best substrate)",[12],44
same,"in vitro phosphorylation, 1 uM peptide (% of best substrate)",[13],13
same,"in vitro phosphorylation, 10 uM peptide (% of best substrate)",[13],14
same,in vitro phosphorylation (% of best substrate),[14],40
same,in vitro phosphorylation (% of best substrate),[15],10
same,"in vitro phosphorylation, 1 uM peptide (% of best substrate)",[16],35
same,"in vitro phosphorylation, 10 uM peptide (% of best substrate)",[16],22
same,in vitro phosphorylation (% of best substrate),[17],25
same,"in vitro phosphorylation, 1 uM peptide (% of best substrate)",[18],13
same,"in vitro phosphorylation, 10 uM peptide (% of best substrate)",[18],13
same,"in vitro phosphorylation, 1 uM peptide (% of best substrate)",[19],30
same,"in vitro phosphorylation, 10 uM peptide (% of best substrate)",[19],36
same,"in vitro phosphorylation, 1 uM peptide (% of best substrate)",[20],40
same,"in vitro phosphorylation, 10 uM peptide (% of best substrate)",[20],19
same,"in vitro phosphorylation, 1 uM peptide (% of best substrate)",[21],35
same,"in vitro phosphorylation, 10 uM peptide (% of best substrate)",[21],35
same,"in vitro phosphorylation, 1 uM peptide (% of best substrate)",[22],25
same,"in vitro phosphorylation, 10 uM peptide (% of best substrate)",[22],19
same,"in vitro phosphorylation, 1 uM peptide (% of best substrate)",[23],100
same,"in vitro phosphorylation, 10 uM peptide (% of best substrate)",[23],86
same,"in vitro phosphorylation, 1 uM peptide (% of best substrate)",[24],67
same,"in vitro phosphorylation, 10 uM peptide (% of best substrate)",[24],52
same,"in vitro phosphorylation, 1 uM peptide (% of best substrate)",[25],46
same,"in vitro phosphorylation, 10 uM peptide (% of best substrate)",[25],53
same,in vitro phosphorylation (% of best substrate),[26],49
same,"in vitro phosphorylation, 1 uM peptide (% of best substrate)",[27],12
same,"in vitro phosphorylation, 10 uM peptide (% of best substrate)",[27],14
same,"in vitro phosphorylation, 1 uM peptide (% of best substrate)",[28],22
same,"in vitro phosphorylation, 10 uM peptide (% of best substrate)",[28],18
same,"in vitro phosphorylation, 1 uM peptide (% of best substrate)",[29],36
same,"in vitro phosphorylation, 10 uM peptide (% of best substrate)",[29],16
same,"in vitro phosphorylation, 1 uM peptide (% of best substrate)",[30],19
same,"in vitro phosphorylation, 10 uM peptide (% of best substrate)",[30],25
same,"in vitro phosphorylation, 1 uM peptide (% of best substrate)",[31],42
same,"in vitro phosphorylation, 10 uM peptide (% of best substrate)",[31],28
